Like-named read-outs stand apart in the source and are kept apart here.
Legend:
SEC = target: the molecule itself; test: SEC
[1] = target: the molecule itself

Row | Protein | stoichiometry N (SEC) | stoichiometry N [1]
1 | ^hexYME1L (hex-tag, 10-residue linker and the catalytic domain of human YME1L, residues 317-773) (other, homo sapiens) GELKAIAQELKAIAKELKAIAWELKAIAQGAGGSGSYFQSNARFRTTTGLDSAVDPVQMKNVTFEHVKGVEEAKQELQEVVEFLKNPQKFTILGGKLPKGILLVGPPGTGKTLLARAVAGEADVPFYYASGSEFDEMFVGVGASRIRNLFREAKANAPCVIFIDELDSVGGKRIESPMHPYSRQTINQLLAEMDGFKPNEGVIIIGATNFPEALDNALIRPGRFDMQVTVPRPDVKGRTEILKWYLNKIKFDQSVDPEIIARGTVGFSGAELENLVNQAALKAAVDGKEMVTMKELEFSKDKILMGPERRSVEIDNKNKTITAYHESGHAIIAYYTKDAMPINKATIMPRGPTLGHVSLLPENDRWNETRAQLLAQMDVSMGGRVAEELIFGTDHITTGASSDFDNATKIAKRMVTKFGMSEKLGVMTYSDTGKLSPETQSAIEQEIRILLRDSYERAKHILKTHAKEHKNLAEALLTYETLDAKEIQIVLEGKKLEVR | 6 | –
2 | ^hexYME1L_(E439A) M452C (other, homo sapiens) GELKAIAQELKAIAKELKAIAWELKAIAQGAGGSGSYFQSNARFRTTTGLDSAVDPVQMKNVTFEHVKGVEEAKQELQEVVEFLKNPQKFTILGGKLPKGILLVGPPGTGKTLLARAVAGEADVPFYYASGSEFDEMFVGVGASRIRNLFREAKANAPCVIFIDALDSVGGKRIESPCHPYSRQTINQLLAEMDGFKPNEGVIIIGATNFPEALDNALIRPGRFDMQVTVPRPDVKGRTEILKWYLNKIKFDQSVDPEIIARGTVGFSGAELENLVNQAALKAAVDGKEMVTMKELEFSKDKILMGPERRSVEIDNKNKTITAYHESGHAIIAYYTKDAMPINKATIMPRGPTLGHVSLLPENDRWNETRAQLLAQMDVSMGGRVAEELIFGTDHITTGASSDFDNATKIAKRMVTKFGMSEKLGVMTYSDTGKLSPETQSAIEQEIRILLRDSYERAKHILKTHAKEHKNLAEALLTYETLDAKEIQIVLEGKKLEVR | – | 6
3 | ^hexYME1L_(E439A) M500C (other, homo sapiens) GELKAIAQELKAIAKELKAIAWELKAIAQGAGGSGSYFQSNARFRTTTGLDSAVDPVQMKNVTFEHVKGVEEAKQELQEVVEFLKNPQKFTILGGKLPKGILLVGPPGTGKTLLARAVAGEADVPFYYASGSEFDEMFVGVGASRIRNLFREAKANAPCVIFIDALDSVGGKRIESPMHPYSRQTINQLLAEMDGFKPNEGVIIIGATNFPEALDNALIRPGRFDCQVTVPRPDVKGRTEILKWYLNKIKFDQSVDPEIIARGTVGFSGAELENLVNQAALKAAVDGKEMVTMKELEFSKDKILMGPERRSVEIDNKNKTITAYHESGHAIIAYYTKDAMPINKATIMPRGPTLGHVSLLPENDRWNETRAQLLAQMDVSMGGRVAEELIFGTDHITTGASSDFDNATKIAKRMVTKFGMSEKLGVMTYSDTGKLSPETQSAIEQEIRILLRDSYERAKHILKTHAKEHKNLAEALLTYETLDAKEIQIVLEGKKLEVR | – | 6
4 | ^hexYME1L_(E439A) M701C (other, homo sapiens) GELKAIAQELKAIAKELKAIAWELKAIAQGAGGSGSYFQSNARFRTTTGLDSAVDPVQMKNVTFEHVKGVEEAKQELQEVVEFLKNPQKFTILGGKLPKGILLVGPPGTGKTLLARAVAGEADVPFYYASGSEFDEMFVGVGASRIRNLFREAKANAPCVIFIDALDSVGGKRIESPMHPYSRQTINQLLAEMDGFKPNEGVIIIGATNFPEALDNALIRPGRFDMQVTVPRPDVKGRTEILKWYLNKIKFDQSVDPEIIARGTVGFSGAELENLVNQAALKAAVDGKEMVTMKELEFSKDKILMGPERRSVEIDNKNKTITAYHESGHAIIAYYTKDAMPINKATIMPRGPTLGHVSLLPENDRWNETRAQLLAQMDVSMGGRVAEELIFGTDHITTGASSDFDNATKIAKRMVTKFGMSEKLGVCTYSDTGKLSPETQSAIEQEIRILLRDSYERAKHILKTHAKEHKNLAEALLTYETLDAKEIQIVLEGKKLEVR | – | 6
